B1: CPEB3 Ribozyme (parent)
chain: UAACAGGGGGCCACAGCAGAAGCGUUCACGUCGCAGCCCCUGUCAGAUUCUGGUGAAUCUGCGAAUUCUGCUGUAUAUCUC

Variants of: B1
Experiment: self-cleavage, relative activity (ratio to wild type); higher = more cleavage; in vitro, sequencing
Outline: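 After error-prone PCR and barcoding, CPEB3 ribozyme mutant libraries were transcribed with T7 RNA polymerase at 37°C for 5 hours, then given 15 min with DNase I before an EDTA stop, and they cleaved during both steps. Reverse transcription with template switching preceded Illumina sequencing. Relative activity divides a variant's cleaved/total read fraction by the unmutated ribozyme's. At least 5 reads were required per variant, and three batches were averaged.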

Variant	self-cleavage
U41G U48C	0.36
U41G U49C	0.38
U41G U51A	0.37
U41G U51C	0.21
U41G U51G	0.27
U41G U54C	0.38
U41G U54G	0.23
U41G U58A	0.33
U41G U58C	0.18
U41G U58G	0.16
U41G U60A	0.16
U41G U60C	0.18
U41G U66C	0.2
U41G U67A	0.2
U41G U67C	0.17
U41G U69A	0.36
U41G U69C	0.19
U41G U69G	0.22
U41G U72A	0.14
U41G U72C	0.35
U41G U72G	0.41
U41G U74A	0.37
U41G U74C	0.35
U41G U76A	0.14

Variant	self-cleavage
U41G U76C	0.27
U41G U78A	0.26
U41G U78C	0.21
U41G U78G	0.2
U41G U80A	0.26
U41G U80C	0.29
G42A	0.34
G42A A45C	0.32
G42A A45G	0.3
G42A A47G	0.42
G42A A56G	0.16
G42A A56U	0.28
G42A A57G	0.16
G42A A57U	0.18
G42A A64G	0.21
G42A A64U	0.14
G42A A65C	0.24
G42A A65G	0.42
G42A A65U	0.3
G42A A75G	0.28
G42A A77U	0.39
G42A C44G	0.11
G42A C59G	0.23
G42A C79A	0.33

Variant	self-cleavage
G42A C79U	0.36
G42A C81G	0.35
G42A C81U	0.4
G42A G53C	0.29
G42A G55U	0.08
G42A G63U	0.35
G42A G70A	0.19
G42A G70C	0.13
G42A U43C	0.29
G42A U43G	0.32
G42A U48C	0.33
G42A U49A	0.21
G42A U51C	0.29
G42A U54A	0.45
G42A U54C	0.57
G42A U58A	0.21
G42A U58C	0.25
G42A U60A	0.3
G42A U60C	0.34
G42A U66C	0.38
G42A U67A	0.14
G42A U67C	0.21
G42A U69A	0.08
G42A U72A	0.18

Variant	self-cleavage
G42A U72C	0.37
G42A U74C	0.64
G42A U76C	0.41
G42A U76G	0.26
G42A U78C	0.21
G42A U80A	0.79
G42A U80C	0.36
G42C	0.51
G42C A57G	0.25
G42C U43A	0.33
G42C U43C	0.14
G42C U48A	0.13
G42C U49C	0.1
G42C U60C	0.24
G42C U72C	0.21
G42C U74C	0.3
G42U	0.31
G42U A47G	0.18
G42U A56G	0.49
G42U A56U	0.48
G42U A57G	0.19
G42U A64U	0.13
G42U A75G	0.19
G42U A77U	0.37

Variant	self-cleavage
G42U G53A	0.31
G42U U43A	0.54
G42U U43C	0.43
G42U U49C	0.02
G42U U58A	0.11
G42U U60A	0.21
G42U U60C	0.17
G42U U66A	0.26
G42U U66C	0.48
G42U U66G	0.32
G42U U67C	0.08
G42U U69G	0.14
G42U U74C	0.35
G42U U76C	0.93
G42U U80C	0.51
U43A	1.17
U43A A45C	0.39
U43A A45G	0.75
U43A A45U	0.82
U43A A47G	1.06
U43A A47U	0.63
U43A A56C	0.73
U43A A56G	0.97
U43A A56U	0.88

Variant	self-cleavage
U43A A57C	0.47
U43A A57G	1.05
U43A A57U	1.11
U43A A64G	1.04
U43A A64U	0.51
U43A A65G	0.93
U43A A65U	0.57
U43A A75C	1.36
U43A A75G	1.01
U43A A75U	1.19
U43A A77C	1.18
U43A A77G	1.2
U43A A77U	1.23
U43A C44U	1.11
U43A C50A	1.07
U43A C59G	0.41
U43A C62U	0.39
U43A C68U	1.15
U43A C71U	0.49
U43A C79A	1.22
U43A G46A	0.44
U43A G46U	0.45
U43A G52A	1.23
U43A G52C	1.19

Variant	self-cleavage
U43A G52U	1.26
U43A G53A	1.2
U43A G55A	0.77
U43A G61A	0.97
U43A G61C	0.36
U43A G63A	1.13
U43A G63U	1.26
U43A G70U	0.54
U43A G73A	1.28
U43A G73U	1.26
U43A U48C	0.71
U43A U49A	0.8
U43A U49C	0.53
U43A U49G	0.52
U43A U51A	0.97
U43A U51C	0.88
U43A U51G	1.15
U43A U54A	1.25
U43A U54C	1.19
U43A U58A	0.72
U43A U58C	0.67
U43A U58G	0.31
U43A U60A	0.53
U43A U60C	0.54

Variant	self-cleavage
U43A U66A	0.69
U43A U66C	0.53
U43A U67A	0.83
U43A U67C	0.33
U43A U69A	0.79
U43A U69C	0.72
U43A U69G	0.82
U43A U72A	0.71
U43A U72C	1.17
U43A U72G	1.02
U43A U74A	1.35
U43A U74C	1.24
U43A U76A	1.23
U43A U76C	1.14
U43A U78A	1.29
U43A U78C	1.13
U43A U78G	1.29
U43A U80A	1.22
U43A U80C	1.15
U43C	0.67
U43C A45C	0.3
U43C A45G	0.5
U43C A45U	0.3
U43C A47C	0.06

Variant	self-cleavage
U43C A47G	0.58
U43C A47U	0.39
U43C A56C	0.18
U43C A56G	0.33
U43C A56U	0.26
U43C A57G	0.3
U43C A57U	0.22
U43C A64G	0.51
U43C A64U	0.29
U43C A65G	0.31
U43C A65U	0.19
U43C A75C	0.84
U43C A75G	0.39
U43C A75U	0.62
U43C A77G	0.58
U43C A77U	0.78
U43C C44G	0.09
U43C C44U	0.38
U43C C50A	0.31
U43C C50U	0.24
U43C C59A	0.12
U43C C59U	0.52
U43C C62A	0.31
U43C C62G	0.21

Variant	self-cleavage
U43C C62U	0.3
U43C C68A	0.28
U43C C68G	0.11
U43C C68U	0.32
U43C C71A	0.36
U43C C71G	0.28
U43C C71U	0.36
U43C C79A	0.8
U43C C79U	0.91
U43C C81A	0.92
U43C C81U	0.7
U43C G46A	0.22
U43C G46C	0.16
U43C G46U	0.16
U43C G52A	0.92
U43C G52C	0.77
U43C G52U	1.06
U43C G53A	0.87
U43C G53C	0.88
U43C G53U	0.6
U43C G55C	0.33
U43C G55U	0.52
U43C G61A	0.22
U43C G63A	0.47

Variant	self-cleavage
U43C G63C	0.3
U43C G70A	0.31
U43C G70C	0.1
U43C G70U	0.18
U43C G73A	1.13
U43C G73C	1.19
U43C G73U	1.2
U43C U48A	0.29
U43C U48C	0.25
U43C U49A	0.26
U43C U49C	0.24
U43C U49G	0.26
U43C U51A	0.71
U43C U51C	0.77
U43C U51G	0.75
U43C U54A	0.69
U43C U54C	0.32
U43C U54G	0.49
U43C U58A	0.29
U43C U58C	0.23
U43C U58G	0.19
U43C U60A	0.27
U43C U60C	0.26
U43C U60G	0.3

Variant	self-cleavage
U43C U66A	0.24
U43C U66C	0.33
U43C U66G	0.45
U43C U67A	0.36
U43C U67C	0.2
U43C U69A	0.32
U43C U69C	0.31
U43C U69G	0.43
U43C U72A	0.4
U43C U72C	0.76
U43C U72G	0.59
U43C U74A	0.85
U43C U74C	0.89
U43C U74G	0.86
U43C U76A	0.89
U43C U76C	0.73
U43C U76G	0.69
U43C U78A	0.63
U43C U78C	0.49
U43C U78G	0.65
U43C U80A	0.73
U43C U80C	0.68
U43C U80G	1.01
U43G	0.28

Variant	self-cleavage
U43G A45G	0.19
U43G A45U	0.18
U43G A47U	0.1
U43G A56G	0.23
U43G A56U	0.36
U43G A57G	0.21
U43G A64G	0.46
U43G A64U	0.47
U43G A65G	0.34
U43G A75G	0.24
U43G A75U	0.35
U43G A77G	0.22
U43G C44U	0.14
U43G C62G	0.43
U43G C62U	0.26
U43G C81U	0.08
U43G G46A	0.37
U43G G53A	0.3
U43G G70A	0.34
U43G U48A	0.2
U43G U48C	0.39
U43G U49C	0.28
U43G U51C	0.2
U43G U54A	0.26

Variant	self-cleavage
U43G U54C	0.45
U43G U58C	0.14
U43G U60A	0.15
U43G U60C	0.13
U43G U67C	0.11
U43G U69C	0.35
U43G U72A	0.1
U43G U72C	0.33
U43G U72G	0.17
U43G U74A	0.11
U43G U74G	0.36
U43G U78C	0.28
U43G U80C	0.18
C44A	0.43
C44A A45G	0.61
C44A A56U	0.21
C44A A64C	0.18
C44A A64G	0.49
C44A A65G	0.2
C44A A75G	0.32
C44A A77G	0.43
C44A C68G	0.12

From the RNAGym collection of RNA variant scans (doi:10.1093/nar/gkz1192)
